The series concerns the target T1, MCPIP1 D141N (Regnase-1), full length (Homo sapiens, UniProt Q5D1E8 1-599, D141N).
T1 sequence: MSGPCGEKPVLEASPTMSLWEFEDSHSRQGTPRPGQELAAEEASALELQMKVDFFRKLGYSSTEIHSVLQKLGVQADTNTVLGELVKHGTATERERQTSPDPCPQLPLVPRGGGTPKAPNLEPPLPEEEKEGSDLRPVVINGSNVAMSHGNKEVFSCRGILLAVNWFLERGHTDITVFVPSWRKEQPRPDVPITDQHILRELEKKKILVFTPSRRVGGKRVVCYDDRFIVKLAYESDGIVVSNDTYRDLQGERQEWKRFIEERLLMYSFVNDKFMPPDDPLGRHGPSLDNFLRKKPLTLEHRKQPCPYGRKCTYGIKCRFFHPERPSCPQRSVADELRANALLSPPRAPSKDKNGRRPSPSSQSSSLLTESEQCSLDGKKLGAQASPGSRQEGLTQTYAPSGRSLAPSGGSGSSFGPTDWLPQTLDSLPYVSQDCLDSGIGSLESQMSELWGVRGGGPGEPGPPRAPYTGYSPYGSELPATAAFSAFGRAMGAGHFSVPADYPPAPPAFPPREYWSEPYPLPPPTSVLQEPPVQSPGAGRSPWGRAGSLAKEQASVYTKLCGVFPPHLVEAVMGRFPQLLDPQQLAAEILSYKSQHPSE
Put plainly: EMSA; apparent Kd, Hill analysis; 1% agarose, TBE; 25 mM Tris-HCl pH 7.9, 150 mM NaCl, 5% glycerol, 2.5 mM MgCl2, 1 mM DTT, 0.5 mM EDTA, 0.05 mM ZnCl2, 25 C; oligo 2 nM (full length) or 20 nM (PIN, PIN-ZF). The conditions noted are these: protein: recombinant; tags: none stated (purified by ion exchange); chain copies: 2; label: 5' 6-FAM; hairpin. For orientation: A gel shift assay detects complexes by their altered migration in electrophoresis.

Take UGUUGUUCUCUACGAAGAACUGACA (structured_RNA) [mIL-6 82-106 5'FAM]: the Kd is 394 ± 45 nM.

Source of the values: paper PMC5943514, “Substrate specificity of human MCPIP1 endoribonuclease” (Scientific Reports, 2018).
